In paper PMC12808597 (2025):

B1: mouse glucagon-like peptide-1 receptor, untagged (receptor)
chain: GPRPQGTTVSLSETVQKWREYRRQCQRFLTEAPLLATGLFCNRTFDDYACWPDGPPGSFVNVSCPWYLPWASSVLQGHVYRFCTAEGLWLHKDNSSLPWRDLSECEESKRGERNFPEEQLLSLYIIYTVGYALSFSALVIASAILVGFRHLHCTRNYIHLNLFASFILRALSVFIKDAALKWMYSTAAQQHQWDGLLSYQDSLGCRLVFLLMQYCVAANYYWLLVEGVYLYTLLAFSVFSEQRIFKLYLSIGWGVPLLFVIPWGIVKYLYEDEGCWTRNSNMNYWLIIRLPILFAIGVNFLIFIRVICIVVSKLKANLMCKTDIKCRLAKSTLTLIPLLGTHEVIFAFVMDEHARGTLRFIKLFTELSFTSFQGLMVAILYCFVNNEVQMEFRKCWERWRLEHLNIQRDCSMKPLKCPTSSVSSGATVGSSVYAATCQSSYS
B2: human glucagon-like peptide-1 receptor, untagged (receptor)
chain: RPQGATVSLWETVQKWREYRRQCQRSLTEDPPPATDLFCNRTFDEYACWPDGEPGSFVNVSCPWYLPWASSVPQGHVYRFCTAEGLWLQKDNSSLPWRDLSECEESKRGERSSPEEQLLFLYIIYTVGYALSFSALVIASAILLGFRHLHCTRNYIHLNLFASFILRALSVFIKDAALKWMYSTAAQQHQWDGLLSYQDSLSCRLVFLLMQYCVAANYYWLLVEGVYLYTLLAFSVLSEQWIFRLYVSIGWGVPLLFVVPWGIVKYLYEDEGCWTRNSNMNYWLIIRLPILFAIGVNFLIFVRVICIVVSKLKANLMCKTDIKCRLAKSTLTLIPLLGTHEVIFAFVMDEHARGTLRFIKLFTELSFTSFQGLMVAILYCFVNNEVQLEFRKSWERWRLEHLHIQRDSSMKPLKCPTSSLSSGATAGSSMYTATCQASCS
B3: GLP-1R endogenously expressed in INS-1 832/3 clonal rat β-cells (receptor)
chain: GPRPQGATVSLSETVQKWREYRHQCQRFLTEAPLLATGLFCNRTFDDYACWPDGPPGSFVNVSCPWYLPWASSVLQGHVYRFCTAEGIWLHKDNSSLPWRDLSECEESKQGERNSPEEQLLSLYIIYTVGYALSFSALVIASAILVSFRHLHCTRNYIHLNLFASFILRALSVFIKDAALKWMYSTAAQQHQWDGLLSYQDSLGCRLVFLLMQYCVAANYYWLLVEGVYLYTLLAFSVFSEQRIFKLYLSIGWGVPLLFVIPWGIVKYLYEDEGCWTRNSNMNYWLIIRLPILFAIGVNFLVFIRVICIVIAKLKANLMCKTDIKCRLAKSTLTLIPLLGTHEVIFAFVMDEHARGTLRFVKLFTELSFTSFQGFMVAVLYCFVNNEVQMEFRKSWERWRLERLNIQRDSSMKPLKCPTSSVSSGATVGSSVYAATCQNSCS

What was measured:
[1] = target: exendin-asp3 tetramethylrhodamine conjugate (tetramethylrhodamine (TMR) fluorophore (conjugation position shown in Figure 2A))
[2] = target: exendin-phe1 tetramethylrhodamine conjugate (tetramethylrhodamine (TMR) fluorophore (conjugation position shown in Figure 2A))
[3] = target: exendin-asp3 Cy5 conjugate (Cy5 fluorophore (conjugation position shown in Figure 2A))
[4] = target: exendin-phe1 Cy5 conjugate (Cy5 fluorophore (conjugation position shown in Figure 2A))

Binder | Kd [1] | Kd [2] | Kd [3] | Kd [4]
B1 | 5.9 nM | 6.7 nM | 2.7 nM | –
B2 | – | 18.5 nM | 2.8 nM | –
B3 | – | 12.3 nM | – | 0.7 nM
